How the values were obtained:
[1] = Heparin affinity chromatography (NaCl required for elution); type: binding
Method: Fractions that contained HBGF activity (fractions 16-19 collected after the cation exchange chromatography and heparin affinity chromatography) were pooled, diluted, and subjected to a second cycle of heparin affinity FPLC using a TSK heparin 5PW column. To perform the second heparin affinity purification step, biologically active HBGF fractions containing the 0.8 M NaCl eluate from the EconoPac heparin purification step were pooled, diluted 3-fold with 20 mM Tris-HCl (pH 7.4), and clarified by passage through a 0.2-μm filter. The sample was applied at 2 ml/min to a TSK heparin 5PW column (0.8×7.5 cm; TosoHaas, Philadelphia, Pa.), that was washed and eluted as described above, except that CHAPS was omitted from the buffers and fractions of 0.5 ml were collected. […] HBGF polypeptide was again eluted by 0.8 M NaCl (fractions 31-36), but was resolved as two peaks of mitogenic activity which had distinct heparin binding properties. The activity peaks were termed HGBF-0.8-P1 for fractions 31-34 and HGBF-0.8-P2 for fractions 35 and 36. To assess the relative mitogenic capability of HBGFs with IGF-1, EGF, bFGF, and PDGF-AB, DNA synthesis assays on 3T3 cells were performed (Table 4). Biologically active fractions containing the 0.3-0.6 M NaCl eluate from the Bio-Rex column were pooled, diluted 3-fold with 20 mM Tris-HCL (pH 7.4) containing 0.1% CHAPS, passed through a 0.45-μm membrane filter, placed in a siliconized polypropylene vessel, and applied with a peristaltic pump to an EconoPac heparin column (0.7×3.6 cm; Bio-Rad) at 2 ml/min. The heparin column was then washed with 50 ml of 20 mM Tris-HCl buffer, 0.2 M NaCl, 0.1% CHAPS and developed at 1 ml/min with a 40 ml gradient of 0.1-2.0 M NaCl in 20 mM Tris-HCl, 0.1% CHAPS (pH 7.4) using a fast protein liquid chromatography (FPLC) system (Pharmacia Biotech Inc.). Fractions (1 ml) were collected into siliconized tubes during NaCl gradient elution and tested for 3T3 cell mitogenic activity.

Balb/c 3T3 fibroblasts = assay: DNA synthesis ([3H]thymidine incorporation) assay in confluent quiescent Balb/c 3T3 cells; type: cell-based
Method: To assess the relative mitogenic capability of HBGFs with IGF-1, EGF, bFGF, and PDGF-AB, DNA synthesis assays on 3T3 cells were performed (Table 4). Biologically active fractions containing the 0.3-0.6 M NaCl eluate from the Bio-Rex column were pooled, diluted 3-fold with 20 mM Tris-HCL (pH 7.4) containing 0.1% CHAPS, passed through a 0.45-μm membrane filter, placed in a siliconized polypropylene vessel, and applied with a peristaltic pump to an EconoPac heparin column (0.7×3.6 cm; Bio-Rad) at 2 ml/min. The heparin column was then washed with 50 ml of 20 mM Tris-HCl buffer, 0.2 M NaCl, 0.1% CHAPS and developed at 1 ml/min with a 40 ml gradient of 0.1-2.0 M NaCl in 20 mM Tris-HCl, 0.1% CHAPS (pH 7.4) using a fast protein liquid chromatography (FPLC) system (Pharmacia Biotech Inc.). Fractions (1 ml) were collected into siliconized tubes during NaCl gradient elution and tested for 3T3 cell mitogenic activity. Column fractions were tested for their ability to stimulate DNA synthesis as measured by [^3H]thymidine incorporation into the DNA of confluent quiescent Balb/c 3T3 cells grown in 200 μl of Dulbecco's modified Eagle's medium, 10% bovine calf serum in 96-well culture plates as described (Kim, G. Y., et al., Biol. Reprod. 52, 561-571 (1995)). Dose-response curves to purified growth factors from ULF were established by assaying each dose in triplicate, with data computed as mean±S.D. Statistical significance of the effects of 1-100 μg/ml porcine heparin (Sigma) on growth factor activity was determined by Students' t test.

[2] = preparation after C8HPLC (step 1), bioactivity diminished due to acid exposure

B1: HBGF-0.8-P2: 10-kDa heparin-binding growth factor; truncated porcine CTGF starting at residue 248 (SEQ ID NO: 2 N-terminus) (protein)
chain: ENIKKGKKCIRTPKISKPVKFELSGCTSVKTYRAKFCGVCTDGRCCTPHRTTTLPVEFKCPDGEVMKKSMMFIKTCACHYNCPGDNDIFESLYYRKMYGDMA
[1]
  NaCl required for elution from a heparin affinity column: 0.8 M
Balb/c 3T3 fibroblasts; [2]
  ED50: concentration of HBGF-0.8 preparation required to give 50% maximal DNA synthesis: 0.25 µg/mL
Balb/c 3T3 fibroblasts; preparation after TSK-Hep step
  ED50: concentration of HBGF-0.8 preparation required to give 50% maximal DNA synthesis: 0.417 µg/mL

B2: HBGF-0.8-P1: 10-kDa heparin-binding growth factor; N-terminally truncated porcine CTGF starting at residue 247 (SEQ ID NO: 1 N-terminus) (protein)
chain: EENIKKGKKCIRTPKISKPVKFELSGCTSVKTYRAKFCGVCTDGRCCTPHRTTTLPVEFKCPDGEVMKKSMMFIKTCACHYNCPGDNDIFESLYYRKMYGDMA
[1]
  NaCl required for elution from a heparin affinity column: 0.8 M
[1]; TSK heparin 5PW column
  Heparin affinity as compared with HBGF-0.8-P2: lower heparin affinity
Balb/c 3T3 fibroblasts; [2]
  ED50: concentration of HBGF-0.8 preparation required to give 50% maximal DNA synthesis: 0.25 µg/mL
Balb/c 3T3 fibroblasts; preparation after C8HPLC, step 2, bioactivity diminished due to acid exposure
  ED50: concentration of HBGF-0.8 preparation required to give 50% maximal DNA synthesis: 0.025 µg/mL
Balb/c 3T3 fibroblasts; preparation after TSK-Hep step
  ED50: concentration of HBGF-0.8 preparation required to give 50% maximal DNA synthesis: 2.23 µg/mL
